A short description of this data set: protein stability index of a GFP-peptide fusion (GPS, HEK-293T) (PSI 1-6); higher = more stable.
The mark [1] stands for this setting: treatment: DMSO, c terminus: a fixed tail appended.
Where [2] appears, read: treatment: MLN4924 1 uM, 8 h, c terminus: a fixed tail appended.
Setting [3] is: treatment: DMSO, c terminus: native.
Setting [4] is: treatment: MLN4924 1 uM, 8 h, c terminus: native.

Experimental findings from the supplement of paper PMC10567573 are described below.

± gives the standard deviation.
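Also: 24-mer peptide tiles fused after GFP, lentivirally expressed, FACS-sorted into six equal bins by GFP/DsRed ratio, decoded by Illumina sequencing, PSI is the read-weighted mean bin number.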

Take HPGRGLAGRWLWGAQPCLLLPIVP [ADAMTS4]: the protein stability index stood at 2.08 ± 0.7 under setting [1] and 1.92 ± 0.31 under setting [2].

On to HPLHPRHRKAVHLRTRGRTRGWVQ [C6orf223], for which the protein stability index is, setting by setting: under setting [1], 3.15 ± 0.23; under setting [2], 3.05 ± 0.49.

As for HQKLEREARICRLLKHPNIVRLHD [CAMK2D], the protein stability index runs as follows: under setting [1], 2.51 ± 0.22; under setting [2], 2.9 ± 0.46.

For the sequence HQRKHAGEKPFECRQRLIFEQTPA [ZNF8], the protein stability index turned out to be 3.65 ± 0.2 under setting [1] and 3.64 ± 0.16 under setting [2].

On to HQVPTTAGNKAALLDQIREGAQLK [WASL], for which the protein stability index turned out to be 4.95 ± 0.18 under setting [1] and 4.86 ± 0.33 under setting [2].

Take HRDIKPDNLLLDAKGHVKLSDFGL [STK38L]: the protein stability index under setting [1] came to 3.27 ± 0.23 and the protein stability index under setting [2] is 3.4 ± 0.15.

Take HSAVLRDLRSGTLYSLTLYGLRGP [TNXB]: the protein stability index runs as follows: under setting [1], 2.98 ± 0.63; under setting [2], 2.68 ± 0.38.

Regarding HSLQQSEPDLRHLVLVVNTLRRIQ [SERTAD1], the protein stability index worked out at 2.44 ± 0.33 under setting [1] and 2.61 ± 0.17 under setting [2].

HSMRNSLESTLAETEARYSSQLAQ [KRT36]: the protein stability index is, setting by setting: under setting [1], 4.53 ± 0.22; under setting [2], 4.57 ± 0.17.

On to HSVNRDLNELERLSNLVGKPSENH [MED27], for which the protein stability index stood at 4.75 ± 0.18 under setting [1] and 4.71 ± 0.11 under setting [2].

Turning to HTMRKISNNITLREDQLDTVLAVL [INTS4], the protein stability index reads like this: under setting [1], 2.39 ± 0.27; under setting [2], 2.35 ± 0.21.

In the case of HTRQLISCGGDGGIVVWNMDVERQ [WDFY2], the protein stability index came out at 2.55 ± 0.36 under setting [1] and 2.4 ± 0.14 under setting [2].

As for HVINQGMAMYWGTSRWSSMEIMEA [KCNAB2], the protein stability index by setting is: under setting [1], 2.67 ± 0.53; under setting [2], 2.42 ± 0.21.

Consider HVKIVKLLLAHKADVNAQSSTGNT [ANKRD17], for which the protein stability index runs as follows: under setting [1], 2.32 ± 0.26; under setting [2], 2.36 ± 0.22.

For the sequence HVPNPPSGISFPSVVDHPMPEERA [HESX1], the protein stability index by setting is: under setting [1], 3.48 ± 0.74; under setting [2], 3.99 ± 0.52.

For the sequence HWFRKGLRLHDNPALKECIQGADT [CRY1], the protein stability index was determined as 3.11 ± 0.19 under setting [1] and 3.45 ± 0.38 under setting [2].

For the sequence IALGQMLSLCICGTAITSQYLAER [SLC35F2], the protein stability index stood at 3.37 ± 0.27 under setting [1] and 2.48 ± 0.16 under setting [2].

Regarding IATYRSLLEGQDAKMAGIGIREAS [KRT15], the protein stability index turned out to be 3.09 ± 0.23 under setting [1] and 3.25 ± 0.1 under setting [2].

As for IDALLEFDVHPNELTNGVINAAFM [SNAP91], the protein stability index is, setting by setting: under setting [1], 2.39 ± 0.38; under setting [2], 2.32 ± 0.36.

Consider IDTVYSTAFAPKMIVDLLSEKKTI [OR4A15], for which the protein stability index is 2.37 ± 0.19 under setting [1] and 2.52 ± 0.26 under setting [2].

IEEGFNPVQASQLEEEFDSDSGLS [NFE2L1]: the protein stability index is, setting by setting: under setting [1], 5.37 ± 0.25; under setting [2], 5.44 ± 0.16.

As for IFAQGAPRSSLAESFFVDYEENEG [ADAMTSL2], the protein stability index runs as follows: under setting [1], 4.05 ± 0.067; under setting [2], 4.98 ± 0.26.

Take IFLGFSSLARLQQLLFVIFLLLYL [OR10K2]: the protein stability index is 2.65 ± 0.58 under setting [1] and 2.31 ± 0.52 under setting [2].

As to IGATFTDWFTSYVKNVVSGGFPII [FBXO3], the protein stability index under setting [1] was determined as 2.65 ± 0.84 and the protein stability index under setting [2] amounted to 2.7 ± 0.76.

IGGLLGATFNCLNKRLAKYRMRNV [CLCN6]: the protein stability index worked out at 2.34 ± 0.2 under setting [1] and 2.2 ± 0.53 under setting [2].

On to IGIEAKNLASYDVCSILLGTSTLL [MCOLN1], for which the protein stability index was 2.84 ± 0.7 under setting [1] and 2.92 ± 0.66 under setting [2].

Take IGREGAKDSYDFFTEIKTITVKH [ALDH8A1]: the protein stability index was 2.35 ± 0.43 under setting [3] and 2.42 ± 0.25 under setting [4].

As to IKAEPASPDSPKGSSETETEPPVA [ESRRA], the protein stability index is, setting by setting: under setting [1], 5.58 ± 0.17; under setting [2], 5.62 ± 0.11.

As to IKEQEVCKLQEQLEATVKKLEESK [SASS6], the protein stability index under setting [1] was 5.1 ± 0.27 and the protein stability index under setting [2] came out at 5.05 ± 0.25.

In turn, IKLFACYNDGVINLLEKFFEMKKG [SNAP91] showed a protein stability index under setting [1] of 2.39 ± 0.57 and a protein stability index under setting [2] of 2.48 ± 0.37.

Regarding IKVKPKRVGIFLDYEAGTLSFYNV [TRIM39], the protein stability index was found to be 2.54 ± 0.54 under setting [1] and 2.61 ± 0.48 under setting [2].

Turning to ILAQQPDRLRDEELAELEDALRNL [TRADD], the protein stability index by setting is: under setting [1], 5.29 ± 0.22; under setting [2], 4.94 ± 0.17.

As for ILGRTFFIYDCDPFTRRYYKEKFG [EFHC1], the protein stability index is, setting by setting: under setting [1], 2.52 ± 0.63; under setting [2], 2.24 ± 0.63.

Turning to ILKRKWWKYILLGLADVEANYVIV [SLC35F2], the protein stability index is, setting by setting: under setting [1], 2.55 ± 0.5; under setting [2], 2.23 ± 0.76.

On to ILLESHMVMIRGNSGLKPKDNEFT [POMT2], for which the protein stability index is 2.21 ± 0.31 under setting [1] and 2.15 ± 0.21 under setting [2].

On to ILNTTGTYSGKAADVWSLGVMLYT [TRIB1], for which the protein stability index is 2.7 ± 0.76 under setting [1] and 2.25 ± 0.6 under setting [2].

Regarding ILRFIYSGAFQWEELEEDIRKKLK [RHOBTB3], the protein stability index is, setting by setting: under setting [1], 2.25 ± 0.27; under setting [2], 2.48 ± 0.53.

In turn, ILSFILAIPEAIGFVMVPFEYRGE [EDNRA] returned a protein stability index under setting [1] of 3.6 ± 0.94 and a protein stability index under setting [2] of 3.15 ± 0.51.

On to IMIIICCVILGIVIASTVGGIFA [STX1A], for which the protein stability index under setting [3] was determined as 3.62 ± 0.33 and the protein stability index under setting [4] came to 3.79 ± 0.14.

With INAAFMLLFKDLIKLFACYNDGVI [SNAP91], the protein stability index was determined as 2.9 ± 0.54 under setting [1] and 3.39 ± 0.65 under setting [2].

For IRKYNYVAMDTEFPGVVARPIGEF [CNOT7], the protein stability index came out at 2.21 ± 0.19 under setting [1] and 2.16 ± 0.2 under setting [2].

For the sequence IRVLLAFIVLFLLWPFAWLQVAGL [LPCAT4], the protein stability index was 2.6 ± 0.69 under setting [1] and 3.14 ± 0.44 under setting [2].

Regarding IVKAMASPESGLEVRDRMLLKITI [DVL3], the protein stability index turned out to be 3.12 ± 0.44 under setting [1] and 2.9 ± 0.55 under setting [2].

As to IVNDELYLNGASVLPHKSIGESVP [GMPPB], the protein stability index reads like this: under setting [1], 3.67 ± 0.24; under setting [2], 3.4 ± 0.29.

For IYAFAGMTNHQLSTTEWNDETLYQ [CHIT1], the protein stability index worked out at 2.36 ± 0.26 under setting [1] and 2.61 ± 0.22 under setting [2].

KACSLLDVAVHMPCLGHTFNAGIQ [ZBED1]: the protein stability index by setting is: under setting [1], 2.19 ± 0.5; under setting [2], 2.11 ± 0.36.

Consider KAFADPEVLRRLTSSVSCALDEAA [ANKRD17], for which the protein stability index runs as follows: under setting [1], 3.08 ± 0.34; under setting [2], 3.18 ± 0.21.

With KALNLLPANTQINDIRIFLEKVLE [VPS39], the protein stability index by setting is: under setting [1], 2.11 ± 0.41; under setting [2], 2.04 ± 0.29.

On to KAPVVECSITGDSSRVIAASYDKT [WDR88], for which the protein stability index by setting is: under setting [1], 4.56 ± 0.2; under setting [2], 4.78 ± 0.12.

For the sequence KASGRFGLLQGTSAETSGGLLICL [SEPHS2], the protein stability index runs as follows: under setting [1], 2.53 ± 0.83; under setting [2], 2.41 ± 0.69.

KCLSMFPHYICTLKQPHLLLEKYS [PNLIPRP1]: the protein stability index reads like this: under setting [1], 2.67 ± 0.69; under setting [2], 2.51 ± 0.59.

As for KCQHYKKKRTEQEETIASLQMEVC [CEP70], the protein stability index reads like this: under setting [1], 4.008 ± 0.008; under setting [2], 4.02 ± 0.56.

Consider KDKENKFLCVLMSDWFNFHGHMCI [CLK3], for which the protein stability index runs as follows: under setting [1], 3.06 ± 0.31; under setting [2], 3.08 ± 0.53.

Regarding KDREFHELQGDFSVPDVPKSMAWC [VPS39], the protein stability index is, setting by setting: under setting [1], 3.5 ± 0.33; under setting [2], 3.31 ± 0.15.

Consider KEATVPCTEILTEKKDTITNDSLS [MIA2], for which, under setting [2], the protein stability index was 5.49 ± 0.15.

On to KECKDRGFEYDGKINAWDLYYYMT [NLN], for which the protein stability index is 2.52 ± 0.3 under setting [1] and 2.16 ± 0.29 under setting [2].

For the sequence KEEQRDYVFYLAVGNYRLKEYEKA [FIS1], the protein stability index under setting [1] worked out at 2.39 ± 0.43 and the protein stability index under setting [2] is 2.23 ± 0.36.

In the case of KEHVPTWLQNTHVYSWPKNKKNIL [TRAF3IP2], the protein stability index was found to be 2.71 ± 0.081 under setting [1] and 3.43 ± 0.24 under setting [2].

With KEISDDEAEEEKGEKEEEDKDDEE [HSP90AB1], the protein stability index was determined as 5.66 ± 0.34 under setting [1] and 5.68 ± 0.19 under setting [2].

As for KEKELSIELANIRDEVAFHTAKCE [MTUS2], the protein stability index runs as follows: under setting [1], 4.46 ± 0.43; under setting [2], 4.37 ± 0.46.

As to KELEKRREESQHEIKDVLVWTNDQ [PPFIA4], the protein stability index reads like this: under setting [1], 5.27 ± 0.17; under setting [2], 5.25 ± 0.21.

For the sequence KFCMNGAALCALGKDCFLELAPDF [ETS1], the protein stability index was found to be 2.18 ± 0.33 under setting [1] and 2.01 ± 0.16 under setting [2].

For KFNGITEKEYKTYKENFLKRFQLT [USP39], the protein stability index under setting [1] worked out at 3.59 ± 0.12 and the protein stability index under setting [2] is 3.86 ± 0.15.

Turning to KFTQDNLCRAQRERLASANLRVLV [TEKT4], the protein stability index reads like this: under setting [1], 2.15 ± 0.57; under setting [2], 2.23 ± 0.26.

Consider KFYTWLWGVFYYFVSALGITAGAH [SCD], for which the protein stability index is, setting by setting: under setting [1], 2.253 ± 0.003; under setting [2], 2.84 ± 1.1.

Regarding KGGQDVKKKVHLSEKIHPFIRKSI [PRIM1], the protein stability index is, setting by setting: under setting [1], 3.85 ± 0.53; under setting [2], 3.59 ± 0.48.

In the case of KGYNIWTGGPDACLRCWDQRTIMK [TLE6], the protein stability index reads like this: under setting [1], 2.32 ± 0.18; under setting [2], 2.45 ± 0.14.

As to KHVLYVEHRHLNPDTELKRYFGAR [TCF25], the protein stability index is 2.29 ± 0.42 under setting [1] and 2.48 ± 0.36 under setting [2].

KKMESEEDSNWEKSPDNEDSGDSK [GOLPH3L]: the protein stability index runs as follows: under setting [1], 5.63 ± 0.23; under setting [2], 5.59 ± 0.26.

In turn, KLDIQCDLKTLSDDIKESLESEGK [ATE1] displayed a protein stability index under setting [1] of 5.19 ± 0.23 and a protein stability index under setting [2] of 5.01 ± 0.1.

As for KLIQKKLLDKTCDQVMEFSWSALW [ZER1], the protein stability index is, setting by setting: under setting [1], 2.41 ± 0.41; under setting [2], 2.35 ± 0.2.

In turn, KLLLFLSTELQASQILQNKKHKNS [FAM98B] showed a protein stability index under setting [1] of 2.98 ± 0.75 and a protein stability index under setting [2] of 2.5 ± 1.1.
